Experimental data published in the supplement of paper PMC7877785.
± gives the uncertainty stated by the source.

Experiment: self-splicing fitness, log relative to wild type (ln ratio); higher = more splicing; Tetrahymena group I intron in knt gene, E. coli kanamycin selection, DiMSum; sequences stand for … in CUCUCU…GGAGGGAAAAGUUAUCAGGCAUGCACCUGGUAGCUAGUCUUUAAACCAAUAGAUUGCAUCGGUUUAAAAGGCAAGACCGUCAAAUUGCGGGAAAGGGGUCAACAGCCGUUCAGUACCAAGUCUCAGGGGAAACUUUGAGAUGGCCUUGCAAAGGGUAUGGUAAUAAGCUGACGGACAUGGUCCUAACCACGCAGCCAAGUCCUAAGUCAACAGAUCUUCUGUUGAUAUGGAUGCAGUUCACAGACUAAAUGUCGGUCGGGGAAGAUGUAUUCUUCUCAUAAGAUAUAGUCGGACCUCUCCUUAAUGGGAGCUAGCGGAUGAAGUGAUGCAACACUGGAGCCGCUGGGAACUAAUUUGUAUGCGAAAGUAUAUUGAUUAGUUUUGGAGUACUCGUGGUCG
Outline: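 Fitness was computed with DiMSum as the error-weighted combination of replicate fold changes, kanamycin versus none, each normalised to wild type. The library randomised all eight intron nucleotides of the P1ex region, with the intron placed in the knt kanamycin-resistance gene on pET-22b(+) in E. coli BL21(DE3). Six replicate transformations were grown overnight at 37°C or 30°C on LB agar with or without 25 μg/mL kanamycin, plus 100 μg/mL carbenicillin, 50 μM IPTG and 0.2% rhamnose. Pooled colonies were amplicon-sequenced on an Illumina HiSeq 2500.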

Row | Sequence | self-splicing fitness (ln) (30 °C) | self-splicing fitness (ln) (37 °C)
1 | CCCUAGCAAUAUUACGUGUC | -3.29 ± 0.13 | -2.97 ± 0.19
2 | AUCUAGCAAUAUUACGAUCG | -3.35 ± 0.24 | -1.77 ± 0.27
3 | CGCCAGCAAUAUUACGCAUG | -0.241 ± 0.077 | -1.06 ± 0.1
4 | CUUCAGCAAUAUUACGUCAU | -3.34 ± 0.21 | -3.76 ± 0.34
5 | AUGGAGCAAUAUUACGGGGC | -3.13 ± 0.18 | -2.14 ± 0.19
6 | UGCUAGCAAUAUUACGGUCC | -2.01 ± 0.19 | 0.11 ± 0.21
7 | ACUAAGCAAUAUUACGCAUA | -1.9 ± 0.14 | -2.14 ± 0.14
8 | GCUCAGCAAUAUUACGCCUC | -1.49 ± 0.2 | 0.48 ± 0.22
9 | UGUUAGCAAUAUUACGCGUC | -3.45 ± 0.33 | -2.79 ± 0.36
10 | UUCUAGCAAUAUUACGCAGA | -2.04 ± 0.32 | -1.1 ± 0.23
11 | AGUGAGCAAUAUUACGCGGA | -2.28 ± 0.3 | -1.99 ± 0.23
12 | CCGUAGCAAUAUUACGCUGC | -2.07 ± 0.47 | -1.49 ± 0.45
13 | AACAAGCAAUAUUACGGCUC | -0.27 ± 0.071 | 0.236 ± 0.1
14 | UCUGAGCAAUAUUACGCACG | -3.08 ± 0.33 | –
15 | AGUCAGCAAUAUUACGCAUA | -2.09 ± 0.13 | -0.502 ± 0.12
16 | GGUUAGCAAUAUUACGUCCG | -0.773 ± 0.11 | -0.617 ± 0.2
17 | GCUCAGCAAUAUUACGCCCU | -1.18 ± 0.19 | 0.764 ± 0.18
18 | AUGAAGCAAUAUUACGGAAA | -2.48 ± 0.15 | -0.666 ± 0.15
19 | UCGGAGCAAUAUUACGCUUG | -3.64 ± 0.27 | -2.83 ± 0.35
20 | GCAUAGCAAUAUUACGCAGU | -4.08 ± 0.17 | -1.81 ± 0.12

Row | Sequence | self-splicing fitness (ln) (30 °C) | self-splicing fitness (ln) (37 °C)
21 | ACCUAGCAAUAUUACGCCCG | -1.73 ± 0.27 | -1.13 ± 0.28
22 | UUUGAGCAAUAUUACGCUAC | – | -1.45 ± 0.3
23 | UACGAGCAAUAUUACGUACG | -3.76 ± 0.23 | -2.34 ± 0.18
24 | GUAAAGCAAUAUUACGCUGA | -1.4 ± 0.072 | -0.903 ± 0.099
25 | UCCCAGCAAUAUUACGACCU | -2.88 ± 0.27 | -1.69 ± 0.35
26 | CACGAGCAAUAUUACGAUUC | -3.44 ± 0.15 | -2.49 ± 0.17
27 | GUCAAGCAAUAUUACGGGUG | -4.19 ± 0.24 | -2.73 ± 0.17
28 | CAACAGCAAUAUUACGCGUA | -1.55 ± 0.093 | -1.06 ± 0.088
29 | ACCAAGCAAUAUUACGACCU | -0.493 ± 0.074 | -0.169 ± 0.087
30 | GAGUAGCAAUAUUACGGCGC | -0.602 ± 0.14 | 0.407 ± 0.19
31 | AUCGAGCAAUAUUACGUCCG | -3.17 ± 0.31 | -2.94 ± 0.44
32 | UAACAGCAAUAUUACGAAUA | -0.62 ± 0.1 | -0.528 ± 0.1
33 | CGGGAGCAAUAUUACGGAAG | -2.64 ± 0.18 | -1.3 ± 0.17
34 | GCCGAGCAAUAUUACGUCCU | -2.96 ± 0.14 | -0.795 ± 0.13
35 | AGAAAGCAAUAUUACGAGUA | -2.18 ± 0.097 | -1.13 ± 0.086
36 | CUGAAGCAAUAUUACGACCA | -4.88 ± 0.41 | -1.22 ± 0.18
37 | CGCAAGCAAUAUUACGUACU | -1.64 ± 0.075 | -0.119 ± 0.096
38 | AGAGAGCAAUAUUACGCAGU | – | -2.32 ± 0.35
39 | CGUCAGCAAUAUUACGAGCC | -2.25 ± 0.48 | –
